Reference: US20100221257A1

Biological target: Antibody 6 (Eu3+ cryptate labelled, Example 5)
Assay: HTRF competition: unlabelled test protein (maximum 100 nM) against biotin labelled human IL-1R1/Fc binding to cryptate labelled antibody

Antibody 6 (Eu3+ cryptate labelled, Example 5), sequence (VH, as listed by the source, chain 1 of 2): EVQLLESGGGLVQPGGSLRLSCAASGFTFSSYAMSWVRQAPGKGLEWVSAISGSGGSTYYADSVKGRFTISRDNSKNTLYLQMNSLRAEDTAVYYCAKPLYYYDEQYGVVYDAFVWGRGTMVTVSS
Antibody 6 (Eu3+ cryptate labelled, Example 5), sequence (VL, as listed by the source, chain 2 of 2): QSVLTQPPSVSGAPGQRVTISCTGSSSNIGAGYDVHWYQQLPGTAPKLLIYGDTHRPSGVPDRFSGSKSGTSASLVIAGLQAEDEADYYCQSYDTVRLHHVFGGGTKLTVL

- percentage inhibition at the highest concentration of chimera: 66%
B1: MoIL-1R1 (mouse IL-1R1 extracellular domain Fc fusion) (Fc fusion, UniProt P13504 20-338, looked up, not shown: a dimerising Fc or GST)
chain: LEIDVCTEYPNQIVLFLSVNEIDIRKCPLTPNKMHGDTIIWYKNDSKTPISADRDSRIHQQNEHLWFVPAKVEDSGYYYCIVRNSTYCLKTKVTVTVLENDPGLCYSTQATFPQRLHIAGDGSLVCPYVSYFKDENNELPEVQWYKNCKPLLLDNVSFFGVKDKLLVRNVAEEHRGDYICRMSYTFRGKQYPVTRVIQFITIDENKRDRPVILSPRNETIEADPGSMIQLICNVTGQFSDLVYWKWNGSEIEWNDPFLAEDYQFVEHPSTKRKYTLITTLNISEVKSQFYRYPFICVVKNTNIFESAHVQLIYPVPDFK
